Experimental findings from patent US20240229000A1, “METHODS AND COMPOSITIONS THEREOF FOR SITE-[…] LABELING OF HUMAN IgG BY PROXIMITY-BASED SORTASE-MEDIATED LIGATION” (THE TRUSTEES OF THE UNIVERSITY OF PENNSYLVANIA, priority 2021, published 2024) are described below.

The experiment has as its system trastuzumab (HCLPETG+LC). The experiment in a line: Proximity-based sortase-mediated protein ligation (PBS-PL) heavy chain labeling with GGG-TAMRA. The experiment is classed as biochemical. Conditions: 1 μg trastuzumab (HCLPETG+LC), 200 μM GGG-TAMRA, 37° C. overnight. The procedure:
FIGS. 13A-13C show comparison of proximity-based sortase-mediated protein ligation with 1M SrtA versus traditional sortase labeling with the pentamutant SrtA. FIG. 13A: Heavy chain labeling of trastuzumab (HCLPETG+LC) was carried out by titrating 5M SrtA (5M SrtA/antibody molar ratios ranging from 1:1 to 100:1) and comparing the labeling efficiency to that of 5M SrtA-pG, 1M SrtA-pZ, 1M SrtA-pG, and 1M pG-SrtA. […] Labeling efficiencies of 5M SrtA (FIG. 13B) and 1M SrtA-pZ (FIG. 13C) on the heavy chain were further compared by scaling the GGG-TAMRA concentration from 1-200 μM. Reaction conditions included: 1 μg trastuzumab (HCLPETG+LC), 500 μM CaCl2, 200 μM GGG-TAMRA, and 0.63 μM SrtA variant (1:1 molar ratio of 1M SrtA-pZ to antibody) in 10 mM Tris-HCl buffer (37° C. overnight). For all titration experiments, all other reactions conditions were held constant. Labeling efficiencies were determined by measuring the fluorescent intensity of the heavy chain band. For each experiment, these values were normalized against the maximum fluorescent intensity to compare across reaction conditions. One-way ANOVA was used to determine statistical significance (*P<0.05, n.s.=not significant), followed by Tukey's multiple comparisons test. Bar graphs are represented as average f SD. N=3 per reaction condition.

Chain of trastuzumab (HCLPETG+LC) (as listed by the source, other chains not shown): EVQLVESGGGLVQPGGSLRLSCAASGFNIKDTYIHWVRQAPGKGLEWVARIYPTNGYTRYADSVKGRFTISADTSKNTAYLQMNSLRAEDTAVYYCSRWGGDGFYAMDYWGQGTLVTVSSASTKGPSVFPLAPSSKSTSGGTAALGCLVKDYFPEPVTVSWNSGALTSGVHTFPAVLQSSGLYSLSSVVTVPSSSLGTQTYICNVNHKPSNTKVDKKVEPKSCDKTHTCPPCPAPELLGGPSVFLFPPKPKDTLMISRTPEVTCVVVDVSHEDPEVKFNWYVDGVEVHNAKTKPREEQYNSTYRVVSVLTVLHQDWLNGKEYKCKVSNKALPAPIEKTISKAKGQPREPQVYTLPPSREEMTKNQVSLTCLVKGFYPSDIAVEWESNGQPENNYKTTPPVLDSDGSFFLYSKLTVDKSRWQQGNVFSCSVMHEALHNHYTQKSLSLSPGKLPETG

B1: 5M SrtA-pG (protein)
chain: MQAKPQIPKDKSKVAGYIEIPDADIKEPVYPGPATREQLNRGVSFAEENESLDDQNISIAGHTFIDRPNYQFTNLKAAKKGSMVYFKVGNETRKYKMTSIRNVKPTAVEVLDEQKGKDKQLTLITCDDYNEETGVWETRKIFVATEVKGGSGGSMTFKLIINGKTLKGEITIEAVDAAEAEKIFKQYANDYGIDGEWTYDDATKTFTVTE
With B1, the “heavy chain labeling efficiency of trastuzumab (HCLPETG+LC)” value was “did not label antibodies as efficiently as 1 M SrtA-pG and 1M SrtA-pZ”.
